# Results: US20030091584A1
# Changes are numbered by the printed parent chain. Where “and” joins values, the source holds several entries; their conditions need not be identical. Identical values can stand only once.
# B1: P12f2 (monoclonal antibody) (antibody, V domains shown)
# VH: QVTLRESGPALVKPTQTLTLTCTFSGFSLSTPGMSVGWIRQPPGKALEWLADIWWDDKKHYNPSLKDRLTISKDTSKNQVVLKVTNMDPADTATYYCARDMIFNFYFDVWGAGTTVTVSS
# VL: DIQMTQSPSTLSASVGDRVTITCSLSSRVGYMHWYQQKPGKAPKLLIYDTFYLSSGVPSRFSGSGSGTEFTLTISSLQPDDFATYYCFQGSGYPFTFGGGTKVEIK
# B2: A8c7 (monoclonal antibody) (antibody, V domains shown)
# VH: B1 VH with P32A, H60S, F105W, A112Q
# VL: B1 VL with L25A, F51R, L53Q, V103L
# B3: A13c4 (monoclonal antibody) (antibody, V domains shown)
# VH: B1 VH with P32A, D57G, H60S, A112Q
# VL: B1 VL with F51M, L53Q
# B4: P12f4 (monoclonal antibody) (antibody, V domains shown)
# VH: B1 VH with D57G, A112Q
# VL: B1 VL with F51R, Y52G, S54P
# B5: A12a6 (monoclonal antibody) (antibody, V domains shown)
# VH: B1 VH with P32A, D57G, H60D, A112Q
# VL: B1 VL with L25A, Y52K
# B6: P11d4 (monoclonal antibody) (antibody, V domains shown)
# VH: B1 VH with D57G, F105W, A112Q
# VL: B1 VL with L25P, F51M, Y52R, S54A
# B7: A1e9 (monoclonal antibody) (antibody, V domains shown)
# VH: B1 VH with D57G, F105W, A112Q
# VL: B1 VL with Y52K
# B8: A17d4 (monoclonal antibody) (antibody, V domains shown)
# VH: B1 VH with P32A, D57G, H60S, A112Q
# VL: B1 VL with S24L, L25P, F51M, L53Q, S54A, G90F, V103L
# B9: AFFF (monoclonal antibody) (antibody, V domains shown)
# VH: B1 VH with P32A, H60D, D67S, D100S, F103T
# VL: B1 VL with L25A, R28S, Y52K, S54A, G90F, V103L
# B10: L1-7E5 (Fab fragment) (Fab, V domains shown)
# VH: B1 VH with P32A, H60D, D67S, F103T
# VL: B1 VL with L25A, R28S, Y52R, S54A, V103L
# B11: AFFF (Fab fragment) (Fab, V domains shown)
# VH: B1 VH with P32A, H60D, D67S, D100S, F103T
# VL: B1 VL with L25A, R28S, Y52K, S54A, G90F, V103L
# Biological target: Bac-F
# Assay: BIAcore, mAb vs Bac-F (1:1)
Binder,Kd [nM],koff [s⁻¹],kon [M⁻¹ s⁻¹],number in parentheses after KD (fold against SYNAGIS = 1) [fold]
B1,0.31,0.000128,407000,13
B2,0.21,8.75e-05,417000,19
B3,0.13,3.96e-05,300000,30
B4,0.11,5.55e-05,495000,35
B5,0.04,1.65e-05,460000,98
B6,0.62,0.000289,466000,6
B7,0.33,0.000143,433000,12
B8,0.09,4.07e-05,456000,43

# Biological target: RSV F protein (immobilized on the BIAcore sensor chip) (respiratory syncytial virus)
# Sequence (P03420 26-524): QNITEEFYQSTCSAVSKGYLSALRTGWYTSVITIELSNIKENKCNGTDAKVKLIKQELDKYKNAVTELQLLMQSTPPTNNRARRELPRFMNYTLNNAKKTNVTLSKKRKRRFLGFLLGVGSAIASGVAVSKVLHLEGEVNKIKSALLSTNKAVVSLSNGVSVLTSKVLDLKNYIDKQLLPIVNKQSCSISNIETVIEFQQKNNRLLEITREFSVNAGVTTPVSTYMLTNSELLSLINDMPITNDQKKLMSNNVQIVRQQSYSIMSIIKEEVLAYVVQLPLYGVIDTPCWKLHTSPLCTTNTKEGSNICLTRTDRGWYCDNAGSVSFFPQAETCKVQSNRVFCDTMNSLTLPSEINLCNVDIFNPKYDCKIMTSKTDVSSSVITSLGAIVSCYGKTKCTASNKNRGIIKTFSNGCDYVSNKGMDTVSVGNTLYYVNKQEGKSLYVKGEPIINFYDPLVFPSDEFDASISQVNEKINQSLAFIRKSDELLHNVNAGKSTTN
# Assay: BIAcore, immobilized F protein
Binder,koff,kon
B9,0.000274 s⁻¹ and 0.000266 s⁻¹ and 0.000206 s⁻¹,108000 M⁻¹ s⁻¹ and 96000 M⁻¹ s⁻¹ and 124000 M⁻¹ s⁻¹
B10,0.000192 s⁻¹ and 0.000331 s⁻¹ and 0.000229 s⁻¹,
B11,0.000245 s⁻¹ and 0.000446 s⁻¹ and 0.000268 s⁻¹,212000 M⁻¹ s⁻¹ and 156000 M⁻¹ s⁻¹ and 186000 M⁻¹ s⁻¹
